Reference: publication PMC7614001 (2022)
“And” between values parts separate entries of the source, which are not always exact repeats. Equal values may be shown once.

T1: ALK2/ACTR-IIB ECD (Homo sapiens, UniProt Q04771)
T1 chain 1: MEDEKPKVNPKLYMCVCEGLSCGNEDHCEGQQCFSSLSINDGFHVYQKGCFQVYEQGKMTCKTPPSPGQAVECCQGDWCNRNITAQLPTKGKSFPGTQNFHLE
T1 chain 2: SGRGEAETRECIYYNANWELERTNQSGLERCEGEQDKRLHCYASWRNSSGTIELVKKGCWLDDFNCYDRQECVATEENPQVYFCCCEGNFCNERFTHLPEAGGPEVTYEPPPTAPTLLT

T2: ALK6 ECD (Homo sapiens, UniProt O00238)
T2 chain: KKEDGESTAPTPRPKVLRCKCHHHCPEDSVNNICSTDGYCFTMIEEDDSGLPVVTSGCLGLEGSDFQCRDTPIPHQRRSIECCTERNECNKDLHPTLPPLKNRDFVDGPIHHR

T3: ALK5 ECD (Homo sapiens, UniProt P36897)
T3 chain: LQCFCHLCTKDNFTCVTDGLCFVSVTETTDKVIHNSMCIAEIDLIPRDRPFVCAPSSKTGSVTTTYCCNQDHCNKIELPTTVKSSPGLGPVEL

T4: ALK2/BMPR-II ECD (Homo sapiens, UniProt Q04771)
T4 chain 1: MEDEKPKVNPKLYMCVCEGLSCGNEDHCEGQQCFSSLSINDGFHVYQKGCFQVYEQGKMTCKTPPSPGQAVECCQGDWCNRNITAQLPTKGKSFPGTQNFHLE
T4 chain 2: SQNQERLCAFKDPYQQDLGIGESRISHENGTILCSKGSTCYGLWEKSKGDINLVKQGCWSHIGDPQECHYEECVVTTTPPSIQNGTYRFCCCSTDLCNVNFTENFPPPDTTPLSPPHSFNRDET

T5: ALK2 ECD (Homo sapiens, UniProt Q04771)
T5 chain: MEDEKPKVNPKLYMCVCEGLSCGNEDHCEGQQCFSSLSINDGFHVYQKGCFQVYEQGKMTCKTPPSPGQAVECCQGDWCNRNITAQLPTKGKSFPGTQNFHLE

T6: BMPR-II ECD (Homo sapiens, UniProt Q13873)
T6 chain: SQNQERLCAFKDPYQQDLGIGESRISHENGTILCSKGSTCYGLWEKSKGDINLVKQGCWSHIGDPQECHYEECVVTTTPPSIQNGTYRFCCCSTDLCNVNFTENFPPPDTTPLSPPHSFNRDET

T7: ACTR-IIB ECD (Homo sapiens, UniProt Q13705)
T7 chain: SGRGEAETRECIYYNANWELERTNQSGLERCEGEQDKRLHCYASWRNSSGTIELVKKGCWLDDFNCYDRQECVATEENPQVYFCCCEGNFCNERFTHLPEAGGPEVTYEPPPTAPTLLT

T8: ALK3 ECD (Homo sapiens, UniProt P36894)
T8 chain: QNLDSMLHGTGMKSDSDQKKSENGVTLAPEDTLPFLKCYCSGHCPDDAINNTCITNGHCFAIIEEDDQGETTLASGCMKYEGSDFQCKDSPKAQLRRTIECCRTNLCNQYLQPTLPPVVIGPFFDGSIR


Tests used:
ALK2/ACTR-IIB ECD = molecular target: T1, ALK2/ACTR-IIB ECD; assay: BLI
ALK6 ECD = molecular target: T2, ALK6 ECD; assay: BLI
ALK5 ECD = molecular target: T3, ALK5 ECD; assay: BLI
ALK1 ECD [1] = molecular target: T9, ALK1 ECD (Homo sapiens, UniProt P37023); assay: BLI
T9 sequence (P37023 22-118): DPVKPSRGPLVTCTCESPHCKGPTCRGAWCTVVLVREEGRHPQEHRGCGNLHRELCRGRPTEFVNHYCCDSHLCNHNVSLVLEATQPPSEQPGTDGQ

ALK2/BMPR-II ECD = molecular target: T4, ALK2/BMPR-II ECD; assay: BLI
ACTR-IIA ECD = ACTR-IIA ECD (Homo sapiens, UniProt P27037); assay: BLI
Chain of ACTR-IIA ECD (P27037 20-135): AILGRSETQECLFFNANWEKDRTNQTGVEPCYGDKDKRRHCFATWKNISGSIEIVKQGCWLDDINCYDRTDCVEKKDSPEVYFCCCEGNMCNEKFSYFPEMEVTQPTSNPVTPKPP

ALK2 ECD = molecular target: T5, ALK2 ECD; assay: BLI
BMPR-II ECD = molecular target: T6, BMPR-II ECD; assay: BLI
ACTR-IIB ECD = molecular target: T7, ACTR-IIB ECD; assay: BLI
ALK1 ECD [2] = molecular target: T9, ALK1 ECD; assay: SPR
ALK3 ECD = molecular target: T8, ALK3 ECD; assay: BLI

| Binder | Kd (ALK2/ACTR-IIB ECD) | Kd (ALK6 ECD) [nM] | Kd (ALK5 ECD) [nM] | Kd (ALK1 ECD [1]) [nM] | Kd (ALK2/BMPR-II ECD) | Kd (ACTR-IIA ECD) [nM] | Kd (ALK2 ECD) [nM] | Kd (BMPR-II ECD) [nM] | Kd (ACTR-IIB ECD) [nM] | Kd (ALK1 ECD [2]) [nM] | Kd (ALK3 ECD) [nM] |
| --- | --- | --- | --- | --- | --- | --- | --- | --- | --- | --- | --- |
| BMP-9 (protein) SAGAGSHCQKTSLRVNFEDIGWDSWIIAPKEYEAYECKGGCFFPLADDVTPTKHAIVQTLVHLKFPTKVGKACCVPTKLSPISVLYKDDMGVPTLKYHYEGMSVAECGCR |  |  | 51 | 0.2 |  | 1.7 |  | 0.8 | 1.4 | 0.0134 |  |
| BMP-7 (protein) STGSKQRSQNRSKTPKNQEALRMANVAENSSSDQRQACKKHELYVSFRDLGWQDWIIAPEGYAAYYCEGECAFPLNSYMNATNHAIVQTLVHFINPETVPKPCCAPTQLNAISVLYFDDSSNVILKKYRNMVVRACGCH |  | 15 | 22.6 | 23.1 |  | 1.3 |  | 5.5 | 7.1 |  |  |

These reach a lower Kd (ALK5 ECD). Values come first.

| Kd (ALK2/ACTR-IIB ECD) | Kd (ALK6 ECD) [nM] | Kd (ALK5 ECD) [nM] | Kd (ALK1 ECD [1]) [nM] | Kd (ALK2/BMPR-II ECD) | Kd (ACTR-IIA ECD) [nM] | Kd (ALK2 ECD) [nM] | Kd (BMPR-II ECD) [nM] | Kd (ACTR-IIB ECD) [nM] | Kd (ALK1 ECD [2]) [nM] | Kd (ALK3 ECD) [nM] | Binder |
| --- | --- | --- | --- | --- | --- | --- | --- | --- | --- | --- | --- |
| 103 nM and 88.7 nM | 3.1 | 21.9 | 55.4 | 55.8 nM and 90.7 nM | 21.4 | 10.5 | 56 | 26 |  |  | BMP-4 (protein) SPKHHSQRARKKNKNCRRHSLYVDFSDVGWNDWIVAPPGYQAFYCHGDCPFPLADHLNSTNHAIVQTLVNSVNSSIPKACCVPTELSAISMLYLDEYDKVVLKNYQEMVVEGCGCR |
|  | 0.5 | 5.8 | 13 |  |  |  | 5.4 |  |  | 0.21 | BMP-2 (protein) QAKHKQRKRLKSSCKRHPLYVDFSDVGWNDWIVAPPGYHAFYCHGECPFPLADHLNSTNHAIVQTLVNSVNSKIPKACCVPTELSAISMLYLDENEKVVLKNYQDMVVEGCGCR |
